Results on three substances are retold here after US20150064134A1.

Some targets named below: NEK7(h) (human) (UniProt Q8TDX7); EphB1(h) (human) (UniProt P54762); PKCβI(h) (human) (UniProt P05771); Plk3(h) (human) (UniProt Q9H4B4); Src(T341M)(h) (human) (UniProt P12931); ALK(h) (human) (UniProt Q9UM73); VRK2(h) (human) (UniProt Q86Y07); MAPKAP-K3(h) (human) (UniProt Q16644); Arg(h) (human) (UniProt P42684).
Holding throughout (experiment): cell-based or functional assay
For a further experiment, the target named is T1, MST1(h) (human) (UniProt Q13043).
T1 sequence (looked up): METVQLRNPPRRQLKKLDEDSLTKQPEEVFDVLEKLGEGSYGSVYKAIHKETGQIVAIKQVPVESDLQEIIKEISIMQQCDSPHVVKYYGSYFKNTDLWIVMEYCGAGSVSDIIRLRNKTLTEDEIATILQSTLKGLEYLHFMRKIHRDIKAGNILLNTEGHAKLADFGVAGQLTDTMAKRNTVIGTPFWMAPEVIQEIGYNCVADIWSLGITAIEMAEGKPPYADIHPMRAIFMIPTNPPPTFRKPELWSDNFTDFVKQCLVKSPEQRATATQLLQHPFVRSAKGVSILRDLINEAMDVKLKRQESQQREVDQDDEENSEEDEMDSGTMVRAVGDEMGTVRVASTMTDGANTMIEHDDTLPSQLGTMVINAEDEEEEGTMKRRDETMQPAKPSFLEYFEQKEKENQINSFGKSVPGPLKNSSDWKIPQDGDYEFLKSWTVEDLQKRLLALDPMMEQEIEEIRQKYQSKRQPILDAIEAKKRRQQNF

The target of a further experiment is T2, DDR2(h) (human) (UniProt Q16832).
T2 sequence (looked up): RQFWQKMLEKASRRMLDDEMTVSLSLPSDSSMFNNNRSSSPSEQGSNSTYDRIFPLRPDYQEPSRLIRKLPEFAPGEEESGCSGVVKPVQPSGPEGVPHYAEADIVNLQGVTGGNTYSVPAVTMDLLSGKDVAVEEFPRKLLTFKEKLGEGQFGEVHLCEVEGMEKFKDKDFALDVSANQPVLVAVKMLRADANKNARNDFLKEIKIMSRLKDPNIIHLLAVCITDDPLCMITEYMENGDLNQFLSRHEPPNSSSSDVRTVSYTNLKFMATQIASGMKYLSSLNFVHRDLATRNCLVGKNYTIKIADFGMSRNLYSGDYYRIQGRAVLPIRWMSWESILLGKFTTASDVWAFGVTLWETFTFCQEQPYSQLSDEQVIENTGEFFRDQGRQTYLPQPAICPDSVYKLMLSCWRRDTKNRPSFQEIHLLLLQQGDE

For another experiment, the target named is T3, PKG1β(h) (human) (UniProt Q13976).
T3 sequence (looked up): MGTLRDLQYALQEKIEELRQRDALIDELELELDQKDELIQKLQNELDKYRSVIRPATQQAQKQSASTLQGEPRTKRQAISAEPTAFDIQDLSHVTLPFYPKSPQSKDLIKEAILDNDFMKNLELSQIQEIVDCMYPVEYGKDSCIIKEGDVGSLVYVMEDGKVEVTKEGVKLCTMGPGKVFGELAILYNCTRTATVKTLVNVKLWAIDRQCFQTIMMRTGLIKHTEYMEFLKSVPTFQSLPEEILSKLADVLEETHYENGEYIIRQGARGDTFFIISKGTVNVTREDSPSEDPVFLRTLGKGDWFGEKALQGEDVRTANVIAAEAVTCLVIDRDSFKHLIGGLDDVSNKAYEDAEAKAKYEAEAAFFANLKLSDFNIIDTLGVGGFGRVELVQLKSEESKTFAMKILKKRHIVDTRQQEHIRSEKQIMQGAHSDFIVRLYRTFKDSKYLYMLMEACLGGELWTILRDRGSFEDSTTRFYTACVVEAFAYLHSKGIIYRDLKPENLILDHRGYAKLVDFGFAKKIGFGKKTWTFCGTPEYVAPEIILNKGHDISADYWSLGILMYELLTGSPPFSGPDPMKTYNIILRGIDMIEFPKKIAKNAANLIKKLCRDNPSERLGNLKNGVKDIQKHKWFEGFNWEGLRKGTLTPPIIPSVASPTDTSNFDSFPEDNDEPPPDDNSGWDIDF

In the next experiment the target is T4, EphA3(h) (human) (UniProt P29320).
T4 sequence (looked up): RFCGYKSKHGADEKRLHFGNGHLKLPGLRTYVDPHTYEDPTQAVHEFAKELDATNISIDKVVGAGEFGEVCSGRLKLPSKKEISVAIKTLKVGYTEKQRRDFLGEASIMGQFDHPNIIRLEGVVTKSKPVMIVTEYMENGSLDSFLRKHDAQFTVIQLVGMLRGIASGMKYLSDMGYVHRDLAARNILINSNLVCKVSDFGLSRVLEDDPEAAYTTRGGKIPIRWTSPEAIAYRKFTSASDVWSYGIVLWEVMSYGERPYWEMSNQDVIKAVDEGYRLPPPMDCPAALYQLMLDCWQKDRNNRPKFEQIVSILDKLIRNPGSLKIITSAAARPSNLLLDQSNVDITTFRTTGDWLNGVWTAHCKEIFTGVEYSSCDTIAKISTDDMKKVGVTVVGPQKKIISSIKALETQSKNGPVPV

The target in the next experiment is T5, NEK3(h) (human) (UniProt P51956).
T5 sequence (looked up): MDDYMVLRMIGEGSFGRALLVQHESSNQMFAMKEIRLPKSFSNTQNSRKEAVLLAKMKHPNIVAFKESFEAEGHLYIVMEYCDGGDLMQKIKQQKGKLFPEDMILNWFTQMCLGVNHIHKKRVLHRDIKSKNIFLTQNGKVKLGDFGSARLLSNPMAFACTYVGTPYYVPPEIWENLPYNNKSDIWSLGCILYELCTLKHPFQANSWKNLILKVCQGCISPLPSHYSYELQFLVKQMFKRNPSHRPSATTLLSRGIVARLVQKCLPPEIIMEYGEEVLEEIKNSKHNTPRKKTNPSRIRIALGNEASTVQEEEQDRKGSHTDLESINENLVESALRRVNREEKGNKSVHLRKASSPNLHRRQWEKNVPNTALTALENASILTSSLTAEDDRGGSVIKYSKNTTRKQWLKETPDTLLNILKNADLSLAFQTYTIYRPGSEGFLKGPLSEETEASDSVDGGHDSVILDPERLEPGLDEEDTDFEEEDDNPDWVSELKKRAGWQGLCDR

Chain of Arg(h) (human) (P42684 38-1182 limits assumed): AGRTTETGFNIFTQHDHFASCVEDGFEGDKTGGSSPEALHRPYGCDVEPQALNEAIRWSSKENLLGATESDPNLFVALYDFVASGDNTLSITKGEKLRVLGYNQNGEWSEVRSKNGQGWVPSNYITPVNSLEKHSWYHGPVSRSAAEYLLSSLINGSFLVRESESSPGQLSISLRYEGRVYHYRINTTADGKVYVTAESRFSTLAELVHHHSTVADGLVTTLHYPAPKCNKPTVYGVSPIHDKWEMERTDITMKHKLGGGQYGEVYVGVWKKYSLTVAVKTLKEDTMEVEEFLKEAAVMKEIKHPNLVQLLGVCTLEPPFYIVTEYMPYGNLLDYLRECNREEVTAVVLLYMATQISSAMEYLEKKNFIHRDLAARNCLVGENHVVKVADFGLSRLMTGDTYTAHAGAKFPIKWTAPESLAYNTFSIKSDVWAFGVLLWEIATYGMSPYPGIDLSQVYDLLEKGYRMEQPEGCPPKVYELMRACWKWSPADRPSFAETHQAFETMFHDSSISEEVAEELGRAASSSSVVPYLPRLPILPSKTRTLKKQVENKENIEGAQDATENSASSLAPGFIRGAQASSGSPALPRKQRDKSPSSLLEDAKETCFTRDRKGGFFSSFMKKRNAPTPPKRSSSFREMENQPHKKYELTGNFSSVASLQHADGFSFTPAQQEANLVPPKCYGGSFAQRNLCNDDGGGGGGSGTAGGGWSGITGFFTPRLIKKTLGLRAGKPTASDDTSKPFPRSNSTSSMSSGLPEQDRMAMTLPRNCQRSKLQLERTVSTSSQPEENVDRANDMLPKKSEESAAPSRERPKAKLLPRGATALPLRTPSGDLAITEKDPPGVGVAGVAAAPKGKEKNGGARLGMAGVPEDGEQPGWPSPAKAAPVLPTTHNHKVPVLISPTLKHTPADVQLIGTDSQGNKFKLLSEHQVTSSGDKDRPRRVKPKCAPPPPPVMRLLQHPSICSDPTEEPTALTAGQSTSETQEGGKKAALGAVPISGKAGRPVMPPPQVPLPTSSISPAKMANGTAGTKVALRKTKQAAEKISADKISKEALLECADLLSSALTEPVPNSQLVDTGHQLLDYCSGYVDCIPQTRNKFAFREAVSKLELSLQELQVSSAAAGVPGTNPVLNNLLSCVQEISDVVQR
Chain of VRK2(h) (human) (Q86Y07 whole entry): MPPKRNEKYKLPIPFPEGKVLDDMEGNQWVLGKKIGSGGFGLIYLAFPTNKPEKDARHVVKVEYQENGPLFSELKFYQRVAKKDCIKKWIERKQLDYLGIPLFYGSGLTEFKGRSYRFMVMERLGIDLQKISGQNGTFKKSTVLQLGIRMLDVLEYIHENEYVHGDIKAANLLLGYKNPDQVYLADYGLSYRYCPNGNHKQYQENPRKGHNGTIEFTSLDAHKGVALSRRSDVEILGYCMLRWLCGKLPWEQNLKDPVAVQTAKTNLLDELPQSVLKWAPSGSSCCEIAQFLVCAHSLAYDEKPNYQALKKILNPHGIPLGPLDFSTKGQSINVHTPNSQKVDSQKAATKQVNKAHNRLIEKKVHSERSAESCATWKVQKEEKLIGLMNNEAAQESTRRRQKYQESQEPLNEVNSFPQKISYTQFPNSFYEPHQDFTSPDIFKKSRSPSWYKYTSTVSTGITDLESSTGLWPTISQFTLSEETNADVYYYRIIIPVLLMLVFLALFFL
Chain of EphB1(h) (human) (P54762 564-984 limits assumed): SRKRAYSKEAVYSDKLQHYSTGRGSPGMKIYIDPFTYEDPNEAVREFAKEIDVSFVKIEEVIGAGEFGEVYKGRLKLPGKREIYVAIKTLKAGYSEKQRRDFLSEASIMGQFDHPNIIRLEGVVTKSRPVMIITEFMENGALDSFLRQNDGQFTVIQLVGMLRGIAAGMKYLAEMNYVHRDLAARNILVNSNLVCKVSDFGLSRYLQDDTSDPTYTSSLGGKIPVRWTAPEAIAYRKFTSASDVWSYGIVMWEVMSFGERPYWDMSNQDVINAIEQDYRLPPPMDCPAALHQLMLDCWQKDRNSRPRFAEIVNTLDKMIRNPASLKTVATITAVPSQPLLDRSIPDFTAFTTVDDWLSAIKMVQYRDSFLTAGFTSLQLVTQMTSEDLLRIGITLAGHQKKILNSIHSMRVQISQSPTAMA

Take MMI-0500 (peptide): the % activity at 100 µM with MST1(h) (human) was found to be 3%; with NEK7(h) (human), 89%; with EphB1(h) (human), 37%; with PKCβI(h) (human) it was 1%; in the experiment with Plk3(h) (human), 122%; with DDR2(h) (human) it was 79%. Also, the % activity at 100 µM is 24% in the experiment with PKG1β(h) (human); 59% in the experiment with Src(T341M)(h) (human); 33% in the experiment with EphA3(h) (human); 12% in the experiment with ALK(h) (human); 169% with VRK2(h) (human); 9% in the experiment with MAPKAP-K3(h) (human). Besides, the % activity at 100 µM with NEK3(h) (human) came to 20%; with Arg(h) (human), 22%.
For MMI-0300 (peptide), the % activity at 100 µM with MST1(h) (human) was determined as 14%; in the experiment with NEK7(h) (human), 84%; with EphB1(h) (human) it was 44%; with PKCβI(h) (human) it was 78%; in the experiment with Plk3(h) (human), 127%; with DDR2(h) (human) it was 94%. In addition, the % activity at 100 µM with PKG1β(h) (human) was found to be 50%; with Src(T341M)(h) (human), 70%; with EphA3(h) (human), 6%; with ALK(h) (human), 19%; with VRK2(h) (human), 161%; in the experiment with MAPKAP-K3(h) (human) it was 3%. Also, the % activity at 100 µM in the experiment with NEK3(h) (human) was 92%; with Arg(h) (human), 72%.
On to MMI-0400 (peptide), for which the % activity at 100 µM was determined as 6% with MST1(h) (human); 87% with NEK7(h) (human); 58% in the experiment with EphB1(h) (human); 78% with PKCβI(h) (human); 129% in the experiment with Plk3(h) (human); 95% with DDR2(h) (human). Moreover, the % activity at 100 µM with PKG1β(h) (human) was 53%; in the experiment with Src(T341M)(h) (human), 76%; with EphA3(h) (human), 12%; with ALK(h) (human), 16%; with VRK2(h) (human), 185%; with MAPKAP-K3(h) (human) it was 7%. Moreover, the % activity at 100 µM turned out to be 85% with NEK3(h) (human) and 84% in the experiment with Arg(h) (human).
